Data set [1] concerns the molecule itself. In words: crystal structure; X-ray; sitting drop vapor diffusion at 20 °C; Aip5-C by SeMet-MAD, Aip5-C-3m by molecular replacement.
Data set [2] addresses G-actin (monomeric actin used in microscale thermophoresis) (rabbit, UniProt P68135 1-377). In words: MST; 2 µM G-actin mixed 1:1 with Aip5 loop peptide (highest stock 2 mM); G-buffer with 0.05% Tween 20; 25 °C; Kd mode fit. Conditions: both partners purified.

B1: Aip5-C-3m (L1150A, N1162A, S1165C) (domain or fragment, S. cerevisiae, UniProt P43597 1110-1233, looked up)
chain: DSTTQTTEQSKKNNDKPQDVITTSEIRKLNEKEPVYIYTSAAGGGFHMIPRTARLCTILTANRIPFTYRDLGTDDEARKVWKTFSKGRSLPGVVRGHNDLIGNWEEIEEANEDYKLRELIYDTI
notes: Aip5 (YFR016C), budding yeast, residues 1110-1233 with three point mutations; Homodimer in the crystal; also called triple mutant Aip5-C-3m; source: E. coli BL21 (DE3), purified
For the molecule B1, in data set [1], the binding result is given as “binds”.

B2: Aip5 loop peptide (TSLAGGGFHM) (peptide)
peptide: TSLAGGGFHM
notes: also called loop containing peptide; peptides of Aip5 loop
Usually Kd stands for the concentration at which binding is half-saturated. Regarding B2, the affinity in data set [2], expressed as Kd, was 99 ± 76 µM.

Values taken from paper PMC6838200, “Polarisome scaffolder Spa2-mediated macromolecular condensation of Aip5 for actin polymerization” (Nature Communications, 2019).
